Results on 30 sequences are retold here after the nanobody polyreactivity screen of Harvey et al. (2022).

The data set in a line: yeast display, Sf9 membrane polyspecificity reagent, FACS + sequencing; frameworks hold sequencing errors. The method, boiled down: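 Nanobodies from a synthetic yeast display library (Saccharomyces cerevisiae BJ5465), induced 36–48 hours with galactose, were stained 1 hour at 4 °C with 10% biotinylated, detergent-solubilized Sf9 membrane reagent, enriched on streptavidin microbeads, then FACS-sorted. Anti-HA (expression) and streptavidin (reagent binding) fluorescence set low and high (top ~1%) gates. Polyreactivity labels come from the gate of origin. Genes were colony-PCR amplified, MiSeq 2 × 250 sequenced and filtered by CDR length.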
In the case of “QVQLVESGGGLVQAGGSLRLSCAASGSIYPFYAMGWYRQAPGKERELVATISSGDSTHYADSVKGRFTISRDNAKNTVYEQMNSLKPEDTAVYYCNRRNKAQRFFDLGYWGQGTQVTVSS”, the “polyreactivity (PSR sort gate)” value is “low polyreactivity”.

As to “QVQLVESGGGLVQAGGSLRLSCAASGSIYRYTMGWYRQAPGKERELVASISLSGGRTYYADSVKGRFTISRDNAKNTVYLQMNSLKPEDTAVYDCGTDNRYRSSGQWIRRGYWGQGTQVTVSS”, the “polyreactivity (PSR sort gate)” value is “high polyreactivity”.

For the sequence “QVQLVESGGGLVQAGGSLRLSCAASGSIYSYNVMGWYRQAPGKERELVAAITRSGGSTYYADSVKGRFTISRDNAKNTVYLQMNSLKPEDTAVYYCATAYYSTPFREYSYWGQGTQVTVSS”, the “polyreactivity (PSR sort gate)” value is listed as “low polyreactivity”.

Take “QVQLVESGGGLVQAGGSLRLSCAASGSIYTNAMGWYRQAPGKERELVAAISKRGGSTNYADSVKGRFTISRDNAKNTVYLQMNSLKPEDTAVYYCNRTGSTGYVQVWRPGDYWGQGTQVTVSS”: the “polyreactivity (PSR sort gate)” value was “high polyreactivity”.

On to “QVQLVESGGGLVQAGGSLRLSCAASGSIYVLYAMGWYRQAPGKERELVAAISRGVGGKNYADSVKGRFTISRDNAKNTVYLQMNSLIPEDTAVYYCAAQTLRWSHYYYWGQGTQVTVSS”, for which the “polyreactivity (PSR sort gate)” value is “high polyreactivity”.

On to “QVQLVESGGGLVQAGGSLRLSCAASGSIYVNKAMGWYRQAPGKERELVAAISRSGTRTYYADSVKGRFTISRDNAKNTVYLQMNSLKPEDTAVYYCAVDYYYRMDYWGQGTQVTVSS”, for which the “polyreactivity (PSR sort gate)” value is “high polyreactivity”.

As for “QVQLVESGGGLVQAGGSLRLSCAASGSIYVYNAMGWYRQAPGKERELVAAIDTVGSTNYADSVKGRFTISRDNAKNTVYLQMNSLKPEDTAVYYCAVVTPYWSFYDQVIPSNYWGEGTQVTVSS”, the “polyreactivity (PSR sort gate)” value is given as “low polyreactivity”.

As for “QVQLVESGGGLVQAGGSLRLSCAASGSIYWLYAMGWYRQAPGKERELVAAITWSGGRTYYADSVKGRFTISRDNAKYNVYLQMNSLKPEDTAVYYCARRQRPGYSNPARGGKYDYWGQGTQVTVSS”, the “polyreactivity (PSR sort gate)” value was “low polyreactivity”.

As to “QVQLVESGGGLVQAGGSLRLSCAASGSIYWNTMGWYRQAPGKERELVAGISSSGDSTYYADSVKGRFTISRDNAKNTVYLQMNSLKPEDTAVYYCAARTRRFRYYYWGQGTQVTVSS”, the “polyreactivity (PSR sort gate)” value was “high polyreactivity”.

Regarding “QVQLVESGGGLVQAGGSLRLSCAASGSIYYYAMGWYRQAPGKEMELVAAITRSGGGTYYADSVKGRFTISRDNAKNTVYLQMNSLKPEDTAVYYCAAARYSRAQPNWTYNYWGQGTQVTVSS”, the “polyreactivity (PSR sort gate)” value is “high polyreactivity”.

Turning to “QVQLVESGGGLVQAGGSLRLSCAASGSLFQPNDRGWYRQAPGKERELVASIRGRGGDTYYADSVKGRFTISRDNAKNTVYLQMNSLKPEDTGGYDCAADYRWGQGTQVTVSS”, the “polyreactivity (PSR sort gate)” value was “low polyreactivity”.

In the case of “QVQLVESGGGLVQAGGSLRLSCAASGSLFSGYTMAWYSQAPGKERELVAAITRSGGRTYYADSVKGRFTISRDNAKNTVYLQMKSLKPEVTAVNYCAAVDRRGANYNYWGQGTQVTVSS”, the “polyreactivity (PSR sort gate)” value is “high polyreactivity”.

With “QVQLVESGGGLVQAGGSLRLSCAASGSLFYSYAMGWDRPAPGKERELVAAIRRDGSTNYADSVKGRFTISRDNAKNTVYLQMNSLKPEDTAVYYCNADGWNTYIGPRRYRYDYWGQGTQVTVSS”, the “polyreactivity (PSR sort gate)” value was “low polyreactivity”.

Take “QVQLVESGGGLVQAGGSLRLSCAASGSLFYVYAMGWYRQAPGKERELVAAITNYADSVKGRFTISRDNAKNTVYLQMNSLKPEDTAVYYCAADWWRVEMDYWGQGSQVTVSS”: the “polyreactivity (PSR sort gate)” value was “low polyreactivity”.

Consider “QVQLVESGGGLVQAGGSLRLSCAASGSMFAAYAMGWYRQAPGKARELVAAISSGDGTYYADSVKGRFTISRDNAKNTVYLQRNSLKPEDTAVYYCNAYVSQRYRGSRYYYWGQGTQVTLSS”, for which the “polyreactivity (PSR sort gate)” value is on record as “high polyreactivity”.

As to “QVQLVESGGGLVQAGGSLRLSCAASGSMFSHYTMGWYRQAPGQERELVAAITNGGITNYADAVKGRFTISRDNAKNTVYLQMNSLKPEDTAVYYCAADWWYGYSNYDYWGQGTQVTVSS”, the “polyreactivity (PSR sort gate)” value was “low polyreactivity”.

For “QVQLVESGGGLVQAGGSLRLSCAASGSMFVTNALGWYRQAPGTERELVAAMSVSGGSTYYADSVKGRFTISRDNAKNTVDLQMNSLKPEDTAVYYCNTVRSPPGHDYWGQGTQVTVSS”, the “polyreactivity (PSR sort gate)” value is recorded as “low polyreactivity”.

For the sequence “QVQLVESGGGLVQAGGSLRLSCAASGSNFAKNAMGWYRQAPGKERELVAAITSSGGSTYYADSVKGRFTISRDNAKNTVYLQMNSLNPEDTAVYYCARPNDWYHYHGWYWSIYRYDYWGQGTQVTVSS”, the “polyreactivity (PSR sort gate)” value is “high polyreactivity”.

For the sequence “QVQLVESGGGLVQAGGSLRLSCAASGSNFDTYAMGWYRQAPGKESELVAAITRRAGSTYYADSVKGRFTISRDNAKYTVYLQMNSLKPEDTAVYYCAADFRYPDNYGGYDYWGQGTQVTVSS”, the “polyreactivity (PSR sort gate)” value is “low polyreactivity”.

Take “QVQLVESGGGLVQAGGSLRLSCAASGSNFGEYAMGWYIQAPGKERELVAAISYRGGSTYYADSVKGRFTISRDNAKNTVYLQMNSLKPEDTAVYYCNRDRRRRGAYGRPGGDHWGQGTQVTVSS”: the “polyreactivity (PSR sort gate)” value is “high polyreactivity”.

In the case of “QVQLVESGGGLVQAGGSLRLSCAASGSNFGIYAMGWYRQAPGKERELVAAISSRGSTYYADSVKGRFTISRDNAKNTVYLQMNSLKPEDTAVYYCAAGYAWYNYWGQGTQVTVSS”, the “polyreactivity (PSR sort gate)” value is reported as “high polyreactivity”.

For “QVQLVESGGGLVQAGGSLRLSCAASGSNFGRYVMGWYRQAPGKERELVAAITRTGVRTYYADSVKGRFTISRDNANNTVYLQINSLKPEDTAVYYCNRYGARSNDYWGQGTQVTESS”, the “polyreactivity (PSR sort gate)” value is listed as “low polyreactivity”.

With “QVQLVESGGGLVQAGGSLRLSCAASGSNFGSNAMGWYRQAPGKERELVATISGRGGSTYYADSVKGRFTISRDNAKNTVYLQMNSLKPEDTAVYYCAKDRRTWRYGQVFSPYYYWGQGTQVTVSS”, the “polyreactivity (PSR sort gate)” value was “low polyreactivity”.

As to “QVQLVESGGGLVQAGGSLRLSCAASGSNFGVNAMGGYRQAPGKERELVAAITSGGGTYYTDSVKGRFTISRDNAKKTVYLQKNSLKPEATAVYYCMARVRGKQLVGRYDYWGQGTQVTVSS”, the “polyreactivity (PSR sort gate)” value is given as “high polyreactivity”.

As to “QVQLVESGGGLVQAGGSLRLSCAASGSNFHPNAMGSCRQAPGKERELVAAITKSGGSTYYADSVKGRFTISRDNAKNTVYLQMNSRKPEDTAVYYCNALRYRRVGTLGYDYWGQATQVTVSS”, the “polyreactivity (PSR sort gate)” value is on record as “high polyreactivity”.

“QVQLVESGGGLVQAGGSLRLSCAASGSNFKSNAMGLYRPAPGKERELVAAINRSGAGTYYADSVKGRFTISRDNAKNTVYLQMNSLKPEDTAVYYCAAQSYSRRYDYWGQGTQVTVSS”: the “polyreactivity (PSR sort gate)” value is “high polyreactivity”.

As for “QVQLVESGGGLVQAGGSLRLSCAASGSNFLTYAMGRYRQAPGKEREFVAAISTSGVSTYYADSVKGRFTISRDNAKNTVYLQMNSLKPEDTAVYFCAAVYDLGYYGPIWAIVLDDYWGQGTQVTVSS”, the “polyreactivity (PSR sort gate)” value is “low polyreactivity”.

Turning to “QVQLVESGGGLVQAGGSLRLSCAASGSNFNYYTMGWYRQAPGKERELVAAITDSGGSTYYADSVMGRFTISRDNAKNTVYLQMNSLIPEDTAVYYCAAAVPELYEVRYHADYWGQGTQVTVST”, the “polyreactivity (PSR sort gate)” value is reported as “low polyreactivity”.

On to “QVQLVESGGGLVQAGGSLRLSCAASGSNFPSYAMGWYTKAPGEEMEFVARISRGDDSTYYADSVKGRFTISRDNAKNTVYLQMNSLKPEDTAVYYCAADYPDVVYLEYDYWGQGTQVTVSS”, for which the “polyreactivity (PSR sort gate)” value was “low polyreactivity”.

Take “QVQLVESGGGLVQAGGSLRLSCAASGSNFPYNAMGWYRQAPGKERELVAAITGRGGSTYYADSVKGRFTISRDNAKNTVYLHMNSLKPEDTAVYYCAAVTRNQGYYRYYYWGQGTQVTVSS”: the “polyreactivity (PSR sort gate)” value is “high polyreactivity”.
